Numbered stars: 1 amine (or outer) side, 2 acyl side, 3 side chain; on linkers, the order of the positions; unused ones are H or OH. Bridge positions count the residues as written; N and C are the ends. Side chains are listed from the residue outwards. Ends that are not written are not given here. * marks the point of attachment. C20 diacid = O=C(O)CCCCCCCCCCCCCCCCCCC(=O)*; γGlu = O=C(O)[C@H](CCC(=O)[*:2])N[*:1]; AEEA = NCCOCCOCC(=O)O
T1: rat calcitonin receptor (rat, UniProt P32214 25-516)
T1 construct: whole, on cells; Used as membranes prepared from the transfected cells; also called rCTR; rCT
T1 sequence (looked up): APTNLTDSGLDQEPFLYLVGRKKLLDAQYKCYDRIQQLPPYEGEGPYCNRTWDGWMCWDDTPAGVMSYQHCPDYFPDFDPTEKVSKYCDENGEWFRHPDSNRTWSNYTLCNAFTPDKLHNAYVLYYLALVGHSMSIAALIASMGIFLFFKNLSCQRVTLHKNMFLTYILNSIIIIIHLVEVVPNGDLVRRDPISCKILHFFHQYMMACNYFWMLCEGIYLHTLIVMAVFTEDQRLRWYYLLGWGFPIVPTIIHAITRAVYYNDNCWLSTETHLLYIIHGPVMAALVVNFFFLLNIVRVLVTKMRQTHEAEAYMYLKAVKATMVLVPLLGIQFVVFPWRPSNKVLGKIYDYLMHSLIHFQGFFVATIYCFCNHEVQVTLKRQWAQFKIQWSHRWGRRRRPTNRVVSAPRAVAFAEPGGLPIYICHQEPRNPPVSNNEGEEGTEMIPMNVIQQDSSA

T2: human calcitonin receptor (human, UniProt P30988 25-474)
T2 construct: whole, on cells; Used as membranes prepared from the transfected cells; also called hCTR; hCT
T2 sequence (looked up): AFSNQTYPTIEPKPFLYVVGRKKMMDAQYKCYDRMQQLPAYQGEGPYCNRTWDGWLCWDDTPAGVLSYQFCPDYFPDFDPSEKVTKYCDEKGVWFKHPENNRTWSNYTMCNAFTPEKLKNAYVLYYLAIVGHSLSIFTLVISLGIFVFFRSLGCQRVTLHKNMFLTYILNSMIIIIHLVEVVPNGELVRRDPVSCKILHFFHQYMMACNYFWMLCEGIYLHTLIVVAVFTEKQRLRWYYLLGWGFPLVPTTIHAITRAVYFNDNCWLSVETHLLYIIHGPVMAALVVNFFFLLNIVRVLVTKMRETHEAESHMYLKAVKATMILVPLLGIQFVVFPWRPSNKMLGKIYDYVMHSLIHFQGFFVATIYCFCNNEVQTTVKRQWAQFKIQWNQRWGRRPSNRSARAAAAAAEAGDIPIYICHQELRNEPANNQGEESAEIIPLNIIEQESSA

B1: N^ε1-[2-[2-[2-[[(4S)-4-carboxy-4-(19-carboxynonadecanoylamino)butanoyl]amino]ethoxy]ethoxy]acetyl]-[Arg14,Arg17,Pro21,Pro27,Pro31]-h-amylin (peptide)
peptide: K([AEEA-γGlu-C20 diacid])CNTATCATQRLARFLRHSSPNFGAIPSSTPVGSNTY-NH2
modifications: disulfide 2-7; N-terminus assumed
SMILES: CC[C@H](C)[C@H](NC(=O)[C@H](C)NC(=O)CNC(=O)[C@H](Cc1ccccc1)NC(=O)[C@H](CC(N)=O)NC(=O)[C@@H]1CCCN1C(=O)[C@H](CO)NC(=O)[C@H](CO)NC(=O)[C@H](Cc1c[nH]cn1)NC(=O)[C@H](CCCNC(=N)N)NC(=O)[C@H](CC(C)C)NC(=O)[C@H](Cc1ccccc1)NC(=O)[C@H](CCCNC(=N)N)NC(=O)[C@H](C)NC(=O)[C@H](CC(C)C)NC(=O)[C@H](CCCNC(=N)N)NC(=O)[C@H](CCC(N)=O)NC(=O)[C@@H](NC(=O)[C@H](C)NC(=O)[C@@H]1CSSC[C@H](NC(=O)[C@@H](N)CCCCNC(=O)COCCOCCNC(=O)CC[C@H](NC(=O)CCCCCCCCCCCCCCCCCCC(=O)O)C(=O)O)C(=O)N[C@@H](CC(N)=O)C(=O)N[C@@H]([C@@H](C)O)C(=O)N[C@@H](C)C(=O)N[C@@H]([C@@H](C)O)C(=O)N1)[C@@H](C)O)C(=O)N1CCC[C@H]1C(=O)N[C@@H](CO)C(=O)N[C@@H](CO)C(=O)N[C@H](C(=O)N1CCC[C@H]1C(=O)N[C@H](C(=O)NCC(=O)N[C@@H](CO)C(=O)N[C@@H](CC(N)=O)C(=O)N[C@H](C(=O)N[C@@H](Cc1ccc(O)cc1)C(N)=O)[C@@H](C)O)C(C)C)[C@@H](C)O
notes: Analogue of human amylin; disulfide and C-terminal amide as told for h-amylin; also called compound 64
B2: N^ε1-[2-[2-[2-[[(4S)-4-carboxy-4-(19-carboxynonadecanoylamino)butanoyl]amino]ethoxy]ethoxy]acetyl]-[Arg17,Pro21,Pro27,His34]-h-amylin (peptide)
peptide: K([AEEA-γGlu-C20 diacid])CNTATCATQRLANFLRHSSPNFGAIPSSTNVGHNTY-NH2
modifications: disulfide 2-7; N-terminus assumed
SMILES: CC[C@H](C)[C@H](NC(=O)[C@H](C)NC(=O)CNC(=O)[C@H](Cc1ccccc1)NC(=O)[C@H](CC(N)=O)NC(=O)[C@@H]1CCCN1C(=O)[C@H](CO)NC(=O)[C@H](CO)NC(=O)[C@H](Cc1c[nH]cn1)NC(=O)[C@H](CCCNC(=N)N)NC(=O)[C@H](CC(C)C)NC(=O)[C@H](Cc1ccccc1)NC(=O)[C@H](CC(N)=O)NC(=O)[C@H](C)NC(=O)[C@H](CC(C)C)NC(=O)[C@H](CCCNC(=N)N)NC(=O)[C@H](CCC(N)=O)NC(=O)[C@@H](NC(=O)[C@H](C)NC(=O)[C@@H]1CSSC[C@H](NC(=O)[C@@H](N)CCCCNC(=O)COCCOCCNC(=O)CC[C@H](NC(=O)CCCCCCCCCCCCCCCCCCC(=O)O)C(=O)O)C(=O)N[C@@H](CC(N)=O)C(=O)N[C@@H]([C@@H](C)O)C(=O)N[C@@H](C)C(=O)N[C@@H]([C@@H](C)O)C(=O)N1)[C@@H](C)O)C(=O)N1CCC[C@H]1C(=O)N[C@@H](CO)C(=O)N[C@@H](CO)C(=O)N[C@H](C(=O)N[C@@H](CC(N)=O)C(=O)N[C@H](C(=O)NCC(=O)N[C@@H](Cc1c[nH]cn1)C(=O)N[C@@H](CC(N)=O)C(=O)N[C@H](C(=O)N[C@@H](Cc1ccc(O)cc1)C(N)=O)[C@@H](C)O)C(C)C)[C@@H](C)O
notes: Analogue of human amylin; disulfide and C-terminal amide as told for h-amylin; also called compound 76
B3: N^ε1-[2-[2-[2-[[(4S)-4-carboxy-4-(19-carboxynonadecanoylamino)butanoyl]amino]ethoxy]ethoxy]acetyl]-[Arg17,Pro21,Pro27,Arg34]-h-amylin (peptide)
peptide: K([AEEA-γGlu-C20 diacid])CNTATCATQRLANFLRHSSPNFGAIPSSTNVGRNTY-NH2
modifications: disulfide 2-7; N-terminus assumed
SMILES: CC[C@H](C)[C@H](NC(=O)[C@H](C)NC(=O)CNC(=O)[C@H](Cc1ccccc1)NC(=O)[C@H](CC(N)=O)NC(=O)[C@@H]1CCCN1C(=O)[C@H](CO)NC(=O)[C@H](CO)NC(=O)[C@H](Cc1c[nH]cn1)NC(=O)[C@H](CCCNC(=N)N)NC(=O)[C@H](CC(C)C)NC(=O)[C@H](Cc1ccccc1)NC(=O)[C@H](CC(N)=O)NC(=O)[C@H](C)NC(=O)[C@H](CC(C)C)NC(=O)[C@H](CCCNC(=N)N)NC(=O)[C@H](CCC(N)=O)NC(=O)[C@@H](NC(=O)[C@H](C)NC(=O)[C@@H]1CSSC[C@H](NC(=O)[C@@H](N)CCCCNC(=O)COCCOCCNC(=O)CC[C@H](NC(=O)CCCCCCCCCCCCCCCCCCC(=O)O)C(=O)O)C(=O)N[C@@H](CC(N)=O)C(=O)N[C@@H]([C@@H](C)O)C(=O)N[C@@H](C)C(=O)N[C@@H]([C@@H](C)O)C(=O)N1)[C@@H](C)O)C(=O)N1CCC[C@H]1C(=O)N[C@@H](CO)C(=O)N[C@@H](CO)C(=O)N[C@H](C(=O)N[C@@H](CC(N)=O)C(=O)N[C@H](C(=O)NCC(=O)N[C@@H](CCCNC(=N)N)C(=O)N[C@@H](CC(N)=O)C(=O)N[C@H](C(=O)N[C@@H](Cc1ccc(O)cc1)C(N)=O)[C@@H](C)O)C(C)C)[C@@H](C)O
notes: Analogue of human amylin; disulfide and C-terminal amide as told for h-amylin; also called compound 78
B4: N^ε1-[2-[2-[2-[[(4S)-4-carboxy-4-(19-carboxynonadecanoylamino)butanoyl]amino]ethoxy]ethoxy]acetyl]-[Arg14,Arg17,Pro21,Pro27]-h-amylin (peptide)
peptide: K([AEEA-γGlu-C20 diacid])CNTATCATQRLARFLRHSSPNFGAIPSSTNVGSNTY-NH2
modifications: disulfide 2-7; N-terminus assumed
SMILES: CC[C@H](C)[C@H](NC(=O)[C@H](C)NC(=O)CNC(=O)[C@H](Cc1ccccc1)NC(=O)[C@H](CC(N)=O)NC(=O)[C@@H]1CCCN1C(=O)[C@H](CO)NC(=O)[C@H](CO)NC(=O)[C@H](Cc1c[nH]cn1)NC(=O)[C@H](CCCNC(=N)N)NC(=O)[C@H](CC(C)C)NC(=O)[C@H](Cc1ccccc1)NC(=O)[C@H](CCCNC(=N)N)NC(=O)[C@H](C)NC(=O)[C@H](CC(C)C)NC(=O)[C@H](CCCNC(=N)N)NC(=O)[C@H](CCC(N)=O)NC(=O)[C@@H](NC(=O)[C@H](C)NC(=O)[C@@H]1CSSC[C@H](NC(=O)[C@@H](N)CCCCNC(=O)COCCOCCNC(=O)CC[C@H](NC(=O)CCCCCCCCCCCCCCCCCCC(=O)O)C(=O)O)C(=O)N[C@@H](CC(N)=O)C(=O)N[C@@H]([C@@H](C)O)C(=O)N[C@@H](C)C(=O)N[C@@H]([C@@H](C)O)C(=O)N1)[C@@H](C)O)C(=O)N1CCC[C@H]1C(=O)N[C@@H](CO)C(=O)N[C@@H](CO)C(=O)N[C@H](C(=O)N[C@@H](CC(N)=O)C(=O)N[C@H](C(=O)NCC(=O)N[C@@H](CO)C(=O)N[C@@H](CC(N)=O)C(=O)N[C@H](C(=O)N[C@@H](Cc1ccc(O)cc1)C(N)=O)[C@@H](C)O)C(C)C)[C@@H](C)O
notes: Analogue of human amylin; disulfide and C-terminal amide as told for h-amylin; also called compound 82

target: T1, rat calcitonin receptor; experiment: SPA competition with 125I-calcitonin, membranes with rat calcitonin receptor (Assay VIII)

IC50 | Binder
128 nM | B1
38.9 nM | B2
90.6 nM | B3
143 nM | B4

target: T1, rat calcitonin receptor; experiment: ratio of binding IC50 at rat calcitonin receptor to IC50 at rat amylin receptor (reference)

Ratio rCT/rAmylin binding | Binder
64.7 | B1
56.8 | B2
69.9 | B3
87 | B4

target: T2, human calcitonin receptor; experiment: ratio of binding IC50 at human calcitonin receptor to IC50 at human amylin receptor (reference)
Method: The resulting pellet was resuspended, homogenized and centrifuged (20.000 rpm, 15 min) in a buffer containing 20 mM Na-HEPES and 0.1 mM EDTA (pH 7.4, buffer 2). The resulting pellet was resuspended in buffer 2 and protein concentration was measured (BCA protein Assay, Pierce). The homogenate was kept cold during the whole procedure. The membranes were kept at −80° C. until use. The assay was performed in a 384 well Optiplate (PerkinElmer) in a total volume of 40 ul. Membranes were mixed with SPA beads. Final concentration of membranes 35 ng/μL final and SPA beads was 0.05 mg/well. Test-compounds were dissolved in DMSO and further diluted in assay buffer (50 mM Hepes, pH 7.4, 1 mM CaCl2, 5 mM MgCl₂, 0.1% OA and 0.02% Tween20). […] The final mixture was incubated with shaking at 400 rpm for 120 min at 25° C. prior to centrifugation (1500 rpm, 10 min). Samples were analyzed on TopCounter™ (Packard). The IC₅₀ was calculated using (one site binding competition analysis) GraphPad Prism5 as a measure of receptor affinity.
Membranes were prepared in the following way; the cells were rinsed with PBS and incubated with Versene for approximately 5 min before harvesting. The cells were flushed with PBS and the cell-suspension was centrifuged for 5 min at 1000 rpm. Cells were homogenized (Ultrathurrax) in a buffer containing 20 mM Na-HEPES and 10 mM EDTA (pH 7.4) and centrifuged at 20.000 rpm for 15 min. The resulting pellet was resuspended, homogenized and centrifuged (20.000 rpm, 15 min) in a buffer containing 20 mM Na-HEPES and 0.1 mM EDTA (pH 7.4, buffer 2). The resulting pellet was resuspended in buffer 2 and protein concentration was measured (BCA protein Assay, Pierce). The homogenate was kept cold during the whole procedure. The membranes were kept at −80° C. until use. Assay was performed in a 384 well Optiplate (PerkinElmer) in a total volume of 40 ul. Membranes were mixed with SPA beads.

Ratio hCT/hAmylin binding | Binder
126 | B1
80 | B2
60.7 | B3
140 | B4
